{"source": "paper PMC3498133", "about": "(2012)", "target": "SpcU (Pseudomonas aeruginosa, UniProt O66100 1-137)", "test": "ITC", "note": "“And” between values parts separate entries of the source, which are not always exact repeats. Equal values may be shown once.", "data": [{"binder": "ExoU (natural protein) MHIQSLGATASSLNQEPVETPSQAAHKSASLRQEPSGQGLGVALKSTPGILSGKLPESVSDVRFSSPQGQGESRTLTDSAGPRQITLRQFENGVTELQLSRPPLTSLVLSGGGAKGAAYPGAMLALEEKGMLDGIRSMSGSSAGGITAALLASGMSPAAFKTLSDKMDLISLLDSSNKKLKLFQHISSEIGASLKKGLGNKIGGFSELLLNVLPRIDSRAEPLERLLRDETRKAVLGQIATHPEVARQPTVAAIASRLQSGSGVTFGDLDRLSAYIPQIKTLNITGTAMFEGRPQLVVFNASHTPDLEVAQAAHISGSFPGVFQKVSLSDQPYQAGVEWTEFQDGGVMINVPVPEMIDKNFDSGPLRRNDNLILEFEGEAGEVAPDRGTRGGALKGWVVGVPALQAREMLQLEGLEELREQTVVVPLKSERGDFSGMLGGTLNFTMPDEIKAHLQERLQERVGEHLEKRLQASERHTFASLDEALLALDDSMLTSVAQQNPEITDGAVAFRQKARDAFTELTVAIVSANGLAGRLKLDEAMRSALQRLDALADTPERLAWLAAELNHADNVDHQQLLDAMRGQTVQSPVLAAALAEAQRRKVAVIAENIRKEVIFPSLYRPGQPDSNVALLRRAEEQLRHATSPAEINQALNDIVDNYSARGFLRFGKPLSSTTVEMAKAWRNKEFT", "values": [{"measurement": "Ka", "value": "3.08e+07 M⁻¹ and 1.77e+07 M⁻¹"}]}]}
